Here are results for five sequences from the supplement of paper PMC5998384.

In data set [1] the test system is HeLa Kyoto. As to the kind of experiment: solubility change mitosis vs G1/S (difference of NP-40 vs SDS log2 ratios) (log2 ratio difference); higher = more soluble in mitosis.
Data set [2] concerns HeLa Kyoto. As to the kind of experiment: melting temperature (median over replicates), in situ; higher = more thermally stable.
For data set [3], the system named is HeLa Kyoto. As to the kind of experiment: thermal stability score vs G1/S (z-score of summed log2 fold changes over temperatures); higher = more thermally stable than in G1/S.
Data set [4] has as its system HeLa Kyoto. As to the kind of experiment: solubility in G1/S (NP-40 vs SDS abundance) (log2 ratio); higher = more soluble. To be noted: cell cycle stage: G1/S.
Where [5] appears, read: cell cycle stage: early G1 (4.5 h after nocodazole release).
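For melting temperature (median over replicates), in situ in this document: HeLa Kyoto cells synchronized by double thymidine or nocodazole block, proteins quantified by TMT10plex mass spectrometry, three independent biological replicates.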
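For solubility change mitosis vs G1/S (difference of NP-40 vs SDS log2 ratios) in this document: synchronized HeLa Kyoto cells (double thymidine block for G1/S, nocodazole release for mitosis), protein amounts in NP-40 versus SDS lysates quantified by mass spectrometry, three biological replicates.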
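For solubility in G1/S (NP-40 vs SDS abundance) in this document: HeLa Kyoto cells arrested at G1/S by double thymidine block, proteins quantified by TMT10plex mass spectrometry in mild NP-40 versus SDS extracts, three biological replicates.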
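For thermal stability score vs G1/S (z-score of summed log2 fold changes over temperatures) in this document: synchronized HeLa Kyoto cells, proteins quantified by TMT10plex mass spectrometry, three biological replicates, mitosis taken 0.5 h after nocodazole release, G1/S directly after double thymidine block.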

Take “MHKAGLLGLCARAWNSVRMASSGMTRRDPLANKVALVTASTDGIGFAIARRLAQDGAHVVVSSRKQQNVDQAVATLQGEGLSVTGTVCHVGKAEDRERLVATAVKLHGGIDILVSNAAVNPFFGSIMDVTEEVWDKTLDINVKAPALMTKAVVPEMEKRGGGSVVIVSSIAAFSPSPGFSPYNVSKTALLGLTKTLAIELAPRNIRVNCLAPGLIKTSFSRMLWMDKEKEESMKETLRIRRLGEPEDCAGIVSFLCSEDASYITGETVVVGGGTPSRL [DHRS4]”: the “solubility change mitosis (log2)” value in the data set on HeLa Kyoto [1] is 0.0427. Further, the results for the melting temperature with HeLa Kyoto [2] (cell cycle stage: G1/S) and in the data set with HeLa Kyoto [2] (cell cycle stage: mitosis) were 53.4 °C and 53.5 °C, respectively. Also, the thermal stability score was -0.643 in the data set with HeLa Kyoto [3] (setting [5]) and -0.663 in the data set with HeLa Kyoto [3] (cell cycle stage: mitosis). Also, the “solubility in G1/S (log2)” value with HeLa Kyoto [4] was -0.159.
On to “MHPLQCVLQVQRSLGWGPLASVSWLSLRMCRAHSSLSSTMCPSPERQEDGARKDFSSRLAAGPTFQHFLKSASAPQEKLSSEVEDPPPYLMMDELLGRQRKVYLETYGCQMNVNDTEIAWSILQKSGYLRTSNLQEADVILLVTCSIREKAEQTIWNRLHQLKALKTRRPRSRVPLRIGILGCMAERLKEEILNREKMVDILAGPDAYRDLPRLLAVAESGQQAANVLLSLDETYADVMPVQTSASATSAFVSIMRGCDNMCSYCIVPFTRGRERSRPIASILEEVKKLSEQVFLPPRPPKVLGLQGLKEVTLLGQNVNSFRDNSEVQFNSAVPTNLSRGFTTNYKTKQGGLRFAHLLDQVSRVDPEMRIRFTSPHPKDFPDEVLQLIHERDNICKQIHLPAQSGSSRVLEAMRRGYSREAYVELVHHIRESIPGVSLSSDFIAGFCGETEEDHVQTVSLLREVQYNMGFLFAYSMRQKTRAYHRLKDDVPEEVKLRRLEELITIFREEATKANQTSVGCTQLVLVEGLSKRSATDLCGRNDGNLKVIFPDAEMEDVNNPGLRVRAQPGDYVLVKITSASSQTLRGHVLCRTTLRDSSAYC [CDK5RAP1]”, for which the “solubility change mitosis (log2)” value in the data set with HeLa Kyoto [1] is -0.0868. Further, the melting temperature in the data set with HeLa Kyoto [2] (cell cycle stage: G1/S) turned out to be 50.6 °C; with HeLa Kyoto [2] (cell cycle stage: mitosis), 51 °C. For the same sequence, the thermal stability score amounted to 0.115 in the data set on HeLa Kyoto [3] (setting [5]) and 0.734 in the data set with HeLa Kyoto [3] (cell cycle stage: mitosis). For the same sequence, in the data set on HeLa Kyoto [4], the “solubility in G1/S (log2)” value is -0.0387.
As for “MHRDSCPLDCKVYVGNLGNNGNKTELERAFGYYGPLRSVWVARNPPGFAFVEFEDPRDAADAVRELDGRTLCGCRVRVELSNGEKRSRNRGPPPSWGRRPRDDYRRRSPPPRRRSPRRRSFSRSRSRSLSRDRRRERSLSRERNHKPSRSFSRSRSRSRSNERK [SRSF3]”, the “solubility change mitosis (log2)” value in the data set with HeLa Kyoto [1] came to 0.503. Moreover, the values for the melting temperature with HeLa Kyoto [2] (cell cycle stage: G1/S) and with HeLa Kyoto [2] (cell cycle stage: mitosis) were 55.3 °C and 54.2 °C, respectively. Moreover, the thermal stability score in the data set on HeLa Kyoto [3] (setting [5]) was -0.84; in the data set with HeLa Kyoto [3] (cell cycle stage: mitosis) it was -4.46. For the same sequence, in the data set with HeLa Kyoto [4], the “solubility in G1/S (log2)” value was -0.0567.
Turning to “MHRRGVGAGAIAKKKLAEAKYKERGTVLAEDQLAQMSKQLDMFKTNLEEFASKHKQEIRKNPEFRVQFQDMCATIGVDPLASGKGFWSEMLGVGDFYYELGVQIIEVCLALKHRNGGLITLEELHQQVLKGRGKFAQDVSQDDLIRAIKKLKALGTGFGIIPVGGTYLIQSVPAELNMDHTVVLQLAEKNGYVTVSEIKASLKWETERARQVLEHLLKEGLAWLDLQAPGEAHYWLPALFTDLYSQEITAEEAREALP [SNF8]”, the “solubility change mitosis (log2)” value with HeLa Kyoto [1] came to 0.0161. Moreover, the melting temperature in the data set on HeLa Kyoto [2] (cell cycle stage: G1/S) is 52.9 °C; with HeLa Kyoto [2] (cell cycle stage: mitosis), 51.5 °C. The thermal stability score in the data set with HeLa Kyoto [3] (setting [5]) is -0.788; in the data set on HeLa Kyoto [3] (cell cycle stage: mitosis), -0.397. The “solubility in G1/S (log2)” value in the data set on HeLa Kyoto [4] amounted to 0.377.
With “MIAAPEIPTDFNLLQESETHFSSDTDFEDIEGKNQKQGKGKTCKKGKKGPAEKGKGGNGGGKPPSGPNRMNGHHQQNGVENMMLFEVVKMGKSAMQSVVDDWIESYKHDRDIALLDLINFFIQCSGCKGVVTAEMFRHMQNSEIIRKMTEEFDEDSGDYPLTMAGPQWKKFKSSFCEFIGVLVRQCQYSIIYDEYMMDTVISLLTGLSDSQVRAFRHTSTLAAMKLMTALVNVALNLSINMDNTQRQYEAERNKMIGKRANERLELLLQKRKELQENQDEIENMMNAIFKGVFVHRYRDAIAEIRAICIEEIGIWMKMYSDAFLNDSYLKYVGWTMHDKQGEVRLKCLTALQGLYYNKELNSKLELFTSRFKDRIVSMTLDKEYDVAVQAIKLLTLVLQSSEEVLTAEDCENVYHLVYSAHRPVAVAAGEFLYKKLFSRRDPEEDGMMKRRGRQGPNANLVKTLVFFFLESELHEHAAYLVDSMWDCATELLKDWECMNSLLLEEPLSGEEALTDRQESALIEIMLCTIRQAAECHPPVGRGTGKRVLTAKEKKTQLDDRTKITELFAVALPQLLAKYSVDAEKVTNLLQLPQYFDLEIYTTGRLEKHLDALLRQIRNIVEKHTDTDVLEACSKTYHALCNEEFTIFNRVDISRSQLIDELADKFNRLLEDFLQEGEEPDEDDAYQVLSTLKRITAFHNAHDLSKWDLFACNYKLLKTGIENGDMPEQIVIHALQCTHYVILWQLAKITESSSTKEDLLRLKKQMRVFCQICQHYLTNVNTTVKEQAFTILCDILMIFSHQIMSGGRDMLEPLVYTPDSSLQSELLSFILDHVFIEQDDDNNSADGQQEDEASKIEALHKRRNLLAAFCKLIVYTVVEMNTAADIFKQYMKYYNDYGDIIKETMSKTRQIDKIQCAKTLILSLQQLFNEMIQENGYNFDRSSSTFSGIKELARRFALTFGLDQLKTREAIAMLHKDGIEFAFKEPNPQGESHPPLNLAFLDILSEFSSKLLRQDKRTVYVYLEKFMTFQMSLRREDVWLPLMSYRNSLLAGGDDDTMSVISGISSRGSTVRSKKSKPSTGKRKVVEGMQLSLTEESSSSDSMWLSREQTLHTPVMMQTPQLTSTIMREPKRLRPEDSFMSVYPMQTEHHQTPLDYNRRGTSLMEDDEEPIVEDVMMSSEGRIEDLNEGMDFDTMDIDLPPSKNRRERTELKPDFFDPASIMDESVLGVSMF [STAG2]”, the “solubility change mitosis (log2)” value with HeLa Kyoto [1] is -0.0337. Moreover, the melting temperature with HeLa Kyoto [2] (cell cycle stage: G1/S) stood at 52.9 °C; in the data set on HeLa Kyoto [2] (cell cycle stage: mitosis) it was 51.6 °C. Moreover, the thermal stability score was -0.506 in the data set on HeLa Kyoto [3] (setting [5]) and -0.478 in the data set with HeLa Kyoto [3] (cell cycle stage: mitosis). For the same sequence, in the data set on HeLa Kyoto [4], the “solubility in G1/S (log2)” value was -0.185.
